B1: human CD200-Ig fusion protein (Fc fusion)
chain: QVQVVTQDEREQLYTPASLKCSLQNAQEALIVTWQKKKAVSPENMVTFSENHGVVIQPAYKDKINITQLGLQNSTITFWNITLEDEGCYMCLFNTFGFGKISGTACLTVYVQPIVSLHYKFSEDHLNITCSATARPAPMVFWKVPRSGIENSTVTLSHPNGTTSVTSILHIKDPKNQVGKEVICQVLHLGTVTDFKQTVNKG
notes: Control for PILR-Ig; also called control Ig; not shown: Ig part not described
B2: HVEM-Ig (Fc fusion)
chain: LPSCKEDEYPVGSECCPKCSPGYRVKEACGELTGTVCEPCPPGTYIAHLNGLSKCLQCQMCDPAMGLRASRNCSRTENAVCGCSPGHFCIVQDGDHCAACRAYATSSPGQRVQKGGTESQDTLCQNCPPGTFSPNGTLEECQHQTKCSWLVTKAGAGTSSSHWV
notes: not shown: Ig part not described

Experiments:
[1] = molecular target: T1, glycoprotein B (gB) of HSV-1 (HSV-1, UniProt P06436 30-903); assay: immunoprecipitation from lysate of HSV-1-infected 293T cells, SDS-PAGE, silver stain
T1 construct: also called protein of 110 kDa; PILR-recognizing ligand

[2] = molecular target: T2, FLAG-tagged extracellular region of gB (29th to 720th amino acids) with transmembrane and intracellu (HSV-1; mouse, UniProt P06436 29-720); assay: flow cytometry on transfected 293T cells
T2 construct: also called cell expressing gB; cells to which gB had been transfected

Row | Binder | binding result [1] | binding result [2]
1 | B1 | no binding | 
2 | B2 |  | no binding

— US20100129347A1 (OSAKA UNIVERSITY, published 2010)
